Reference: patent publication US20200057058A1 (MIT, published 2020)

Experiments:
streptavidin [1] = molecular target: T1, streptavidin (UniProt P22629 37-163, limits assumed); assay: fluorescent binding assay, labeled SA in 50% urine on thin film, 4 h exposure
T1 construct: It was used without a stated label in the sandwich assays; also called SA

streptavidin [2] = molecular target: T1, streptavidin; assay: apparent Kd (Kd,app); fluorescent binding curve, labeled SA in PBS, 4 h exposure; quadratic fit
streptavidin [3] = molecular target: T1, streptavidin; assay: sandwich assay: SA in 50% blood serum, biotin-HRP/TMB detection
Procedure: (§1) Each well was submerged in 1 mL of 1% BSA in Milli-Q water, and the 12-well plate was incubated at 37° C. for 30 minutes. The wells were rinsed twice by adding 2 mL of Milli-Q water and gently shaking the well plate at 70 rpm for 5 minutes. 1 mL of streptavidin diluted in PBS, urine, or blood serum (prepared as described in the Fluorescent Assays section) containing 0.1% BSA was then added to each well, and the well plate was shaken at 70 rpm for 4 hours at room temperature. Wells were rinsed twice with 2 mL of Milli-Q water then twice with 2 mL of 0.1% BSA in Milli-Q water by shaking at 70 rpm for 5 minutes. After rinsing, wells were submerged in 1 mL of 200 ng/mL biotin-HRP in Milli-Q water containing 0.1% BSA, and the well plate was shaken at 70 rpm for 1 hour at room temperature. Wells were then rinsed with water and 0.1% BSA as described previously. 1 mL of solution from a Pierce TMB substrate kit (Thermo Fisher Scientific) was added to each well, and the well plate was shaken vigorously at 125 rpm for 15 minutes at room temperature. 1 mL of 2M H2SO4 was added to each well, and the absorbance at 450 nm was read using a Tecan Infinite M200 PRO plate reader.
(§2) The general procedure for this proof-of-concept experiment is diagrammed in FIG. 28. Films were first exposed to SA solutions and rinsed to remove unbound analyte. Taking advantage of the strong interaction between SA and biotin, thin films were then submerged in a solution of biotinylated horseradish peroxidase (biotin-HRP). Bound SA was detected colorimetrically through the HRP-mediated oxidation of 3,3′,5,5′-tetramethylbenzidine (TMB). Attempts to perform this assay using mSA2 as the analyte were unsuccessful, even when run on an rcSso7d.SA monolayer.

streptavidin [4] = molecular target: T1, streptavidin; assay: apparent Kd (Kd,app); fluorescent binding curve, labeled SA in 50% blood serum, 4 h; quadratic fit
[5] = molecular target: monomeric streptavidin variant mSA2; assay: fluorescent binding assay, labeled mSA2 in 50% urine on thin film, 4 h exposure
Procedure: (§3) The binding function of rcSso7d.SA oligomer-PNIPAM thin films was measured using fluorescently-labeled monomeric streptavidin (mSA2) and fluorescently-labeled streptavidin (SA). Details for the expression, purification, and fluorescent labeling of mSA2 are provided below. Samples were prepared by serial dilution of SA or mSA2 in PBS (pH 7.4), human urine (diluted to 50% v/v in PBS, pH 7.4), or blood serum (obtained as the supernatant by centrifuging whole blood at 1500×g for 10 minutes, then diluted to 50% v/v in PBS, pH 7.4). 0.5 μL drops of solutions containing serially diluted fluorescent mSA2 and fluorescent SA samples in PBS (pH 7.4) were gently applied to the surface of each bioconjugate thin film. Films were incubated in a sealed chamber saturated with water vapor at room temperature to prevent to prevent drying of the applied fluorescent samples. […] Fluorescence microscopy images were acquired at 4× magnification using a Cy5 filter set and exposure time of 5000 ms on an Olympus IX-81 inverted fluorescence microscope with an AxioCam HRC CCD camera. Fluorescent intensity was calculated using ImageJ software⁶⁷ by determining the average fluorescent signal in a rectangular area of the fluorescent image free of defects and occupying no less than half of the full sample application area.
(§4) To evaluate how the apparent size-based diffusion properties translated to biosensing capabilities, binding curves were measured using SA and mSA2 solutions in buffer. Binding curves were fit with a quadratic model that is a function of three parameters: the average MFI per binding event a, the total concentration of binding sites [P]T, and the apparent dissociation constant K_{d,app} describing the binding equilibrium between analyte and binding sites within the thin film.

streptavidin [6] = molecular target: T1, streptavidin; assay: sandwich assay: SA in 50% urine, biotin-HRP/TMB detection
Procedure: as §1, §2

[7] = molecular target: monomeric streptavidin variant mSA2; assay: fluorescent binding curve, labeled mSA2 in PBS, 4 h exposure; quadratic fit
Procedure: as §3, §4

streptavidin [8] = molecular target: T1, streptavidin; assay: fluorescent binding curve, labeled SA in PBS, 4 h exposure; quadratic fit
streptavidin [9] = molecular target: T1, streptavidin; assay: fluorescent binding curve, labeled SA in 50% urine, 4 h; quadratic fit
[10] = molecular target: monomeric streptavidin variant mSA2; assay: apparent Kd (Kd,app); fluorescent binding curve, labeled mSA2 in 50% urine, 4 h; quadratic fit
streptavidin [11] = molecular target: T1, streptavidin; assay: fluorescent binding curve, labeled SA in PBS, 30 min exposure
Procedure: as §3, with “film.” for “film. Films were incubated in a sealed chamber saturated with water vapor at room temperature to prevent to prevent drying of the applied fluorescent samples.”
(§5) To evaluate how the apparent size-based diffusion properties translated to biosensing capabilities, binding curves were measured using SA and mSA2 solutions in buffer. […]

streptavidin [12] = molecular target: T1, streptavidin; assay: fluorescent binding curve, labeled SA in 50% blood serum, 4 h; quadratic fit
[13] = molecular target: monomeric streptavidin variant mSA2; assay: fluorescent binding assay, labeled mSA2 in 50% blood serum on thin film, 4 h exposure
Procedure: as §3, §4

streptavidin [14] = molecular target: T1, streptavidin; assay: apparent Kd (Kd,app); fluorescent binding curve, labeled SA in 50% urine, 4 h; quadratic fit
[15] = molecular target: monomeric streptavidin variant mSA2; assay: fluorescent binding curves, labeled mSA2 in 50% urine or 50% blood serum, 4 h
[16] = molecular target: monomeric streptavidin variant mSA2; assay: apparent Kd (Kd,app); fluorescent binding curve, labeled mSA2 in PBS, 0.5 h exposure; quadratic fit
[17] = molecular target: monomeric streptavidin variant mSA2; assay: fluorescent binding curve, labeled mSA2 in PBS, 4 h exposure
Procedure: as §3, with “film.” for “film. Films were incubated in a sealed chamber saturated with water vapor at room temperature to prevent to prevent drying of the applied fluorescent samples.”
as §5

streptavidin [18] = molecular target: T1, streptavidin; assay: fluorescent binding curve, labeled SA in PBS, 4 h exposure
Procedure: as §3, with “film.” for “film. Films were incubated in a sealed chamber saturated with water vapor at room temperature to prevent to prevent drying of the applied fluorescent samples.”
as §5

streptavidin [19] = molecular target: T1, streptavidin; assay: apparent Kd (Kd,app); fluorescent binding curve, labeled SA in PBS, 0.5 h exposure; quadratic fit
streptavidin [20] = molecular target: T1, streptavidin; assay: fluorescent binding assay, labeled SA in 50% blood serum on thin film, 4 h exposure
streptavidin [21] = molecular target: T1, streptavidin; assay: sandwich assay, SA in 50% blood serum, detection with biotin-HRP and TMB
Procedure: as §1, §2

[22] = molecular target: monomeric streptavidin variant mSA2; assay: apparent Kd (Kd,app); fluorescent binding curve, labeled mSA2 in PBS, 4 h exposure; quadratic fit
Procedure: as §3, §4

[23] = molecular target: monomeric streptavidin variant mSA2; assay: fluorescent binding curve, labeled mSA2 in 50% blood serum, 4 h; quadratic fit
[24] = molecular target: monomeric streptavidin variant mSA2; assay: apparent Kd (Kd,app); fluorescent binding curve, labeled mSA2 in 50% blood serum, 4 h; quadratic fit
[25] = molecular target: monomeric streptavidin variant mSA2; assay: fluorescent binding curve, labeled mSA2 in 50% urine, 4 h; quadratic fit
[26] = molecular target: monomeric streptavidin variant mSA2; assay: calculated from [P]T of the mSA2 binding curve fit and film thickness; parameters: Calculated Density (density of binding sites within a cross-sectional area of the film): unit not given here
Procedure: To determine the density of binding proteins within a single plane of each thin film, the concentration of accessible binding sites throughout the entire film—taken directly from the binding assay curve fits (Table 4)—was multiplied by the corresponding film thickness. When accounting for differences in film thickness, the density of oligomerized rcSso7d.SA proteins capable of binding mSA2 is found to increase […] with degree of oligomerization (Table 5). This calculated density decreases, though, between the 1×SP25k and 2×SP25k thin films, indicating a lower density of accessible binding sites in the protein domains of the oligomerized rcSso7d.SA conjugate film. The total number of predicted binding sites within each thin film assuming complete accessibility should be proportional to the […] of rcSso7d. SA in the conjugate with PNIPAM. Reasonable estimates for relative values of the predicted number of sites can thus be obtained by normalizing the weight fraction of rcSso7d. SA in each conjugate by the corresponding weight fraction in 1×SP25k. Comparing these predicted relative number of binding sites to the calculated values (FIG. 6C), all oligomeric rcSso7d.SA conjugates are found to contain fewer proteins capable of binding mSA2 than predicted. It is likely that this effect results from a combination of steric blocking of binding sites by bound mSA2 molecules as well as a lack of the free volume required to incorporate mSA2 molecules into the protein nanodomains at high degrees of binding. Despite the lower than expected binding capacity of the conjugate thin films, these biosensors contain approximately […] the quantity of accessible binding sites compared to rcSso7d.SA monolayers on a volumetric basis (Table 4). Recognizing that each plane (and a monolayer) of rcSso7d.SA proteins is roughly 1-2 nm thick,⁸⁰ the studied thin films can be determined to contain approximately 100 more planes of protein than a monolayer.

[27] = molecular target: monomeric streptavidin variant mSA2; assay: fluorescent binding assay, labeled mSA2 in PBS on thin film; quadratic curve fit
Procedure: (§6) The binding function of rcSso7d.SA oligomer-PNIPAM thin films was measured using fluorescently-labeled monomeric streptavidin (mSA2) and fluorescently-labeled streptavidin (SA). Details for the expression, purification, and fluorescent labeling of mSA2 are provided below. Samples were prepared by serial dilution of SA or mSA2 in PBS (pH 7.4), human urine (diluted to 50% v/v in PBS, pH 7.4), or blood serum (obtained as the supernatant by centrifuging whole blood at 1500×g for 10 minutes, then diluted to 50% v/v in PBS, pH 7.4). 0.5 μL drops of solutions containing serially diluted fluorescent mSA2 and fluorescent SA samples in PBS (pH 7.4) were gently applied to the surface of each bioconjugate thin film. Films were incubated in a sealed chamber saturated with water vapor at room temperature to prevent to prevent drying of the applied fluorescent samples. After 1 hour, films were thoroughly rinsed with water for 10 seconds (a time determined to be sufficient to remove unbound molecules from the film, see FIG. 33, dried under filtered airflow, and immediately analyzed for fluorescent signal. Fluorescence microscopy images were acquired at 4× magnification using a Cy5 filter set and exposure time of 5000 ms on an Olympus IX-81 inverted fluorescence microscope with an AxioCam HRC CCD camera. Fluorescent intensity was calculated using ImageJ software⁶⁷ by determining the average fluorescent signal in a rectangular area of the fluorescent image free of defects and occupying no less than half of the full sample application area.
Binding assays were performed by adding serially diluted solutions of fluorescently-labeled mSA2 to thin films of each studied conjugate (FIG. 6A). To maintain consistent transport properties between samples, each oligomer was conjugated to the same previously-synthesized 25 kDa PNIPAM sample. Analyte bound to thin films was quantified using fluorescence microscopy, and binding curves were fit to the collected mean fluorescent intensity (MFI) data using the following equation: […]

[28] = molecular target: monomeric streptavidin variant mSA2; assay: fluorescent binding assay, labeled mSA2 on thin film
Procedure: as §6, with “Films were incubated in a sealed chamber saturated with water vapor at room temperature to prevent to prevent drying of the applied fluorescent samples.” left out, “area. […]” for “area.”

[29] = molecular target: monomeric streptavidin variant mSA2; assay: fluorescent binding assay, labeled mSA2; signal three standard deviations above blank
Procedure: as §6
Oligomerization of rcSso7d.SA also brings about a decrease in biosensor limit of detection (LOD). […] While all thin films display improvements up to threefold in LOD over the monolayer, the trend in LOD with respect to degree of oligomerization is non-monotonic. The primary factor that is expected to affect LOD in the studied biosensors is number of binding sites, as more binding sites enable a greater number of analyte molecules to be captured and shifts analyte-receptor equilibrium in favor of binding events.

T1 sequence (P22629 37-163 limits assumed): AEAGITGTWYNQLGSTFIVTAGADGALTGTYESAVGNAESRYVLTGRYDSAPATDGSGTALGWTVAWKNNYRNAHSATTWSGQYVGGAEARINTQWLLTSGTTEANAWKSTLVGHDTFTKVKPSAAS

B1: 3xSP9.6k thin film (3x rcSso7d.SA-PNIPAM conjugate, PNIPAM Mn 9.6 kDa) (designed binder)
chain: MGSSHHHHHHSSGLVPRGSHMCATVKFTYQGEEKQVDISKIKIVARDGQYIDFKYDEGGGAYGYGWVSEKDAPKELLQMLEKQGGGGSGGGGSMATVKFTYQGEEKQVDISKIKIVARDGQYIDFKYDEGGGAYGYGWVSEKDAPKELLQMLEKQGGGGSGGGGSMATVKFTYQGEEKQVDISKIKIVARDGQYIDFKYDEGGGAYGYGWVSEKDAPKELLQMLEKQGG
modifications: maleimide end-functionalized PNIPAM (Mn 9.6 kDa) on the N-terminal Cys; film lightly crosslinked with glutaraldehyde
Limit of Detection (streptavidin [1]): 1300 nM | Kd (streptavidin [2]): 40 µM | LOD (streptavidin [3]): 87 nM | Kd (streptavidin [4]): 50 µM | Limit of Detection [5]: 9.8 nM | LOD (streptavidin [6]): 39 nM | [P]T (total concentration of binding sites) [7]: 0.7 nM | [P]T (total concentration of binding sites) (streptavidin [8]): 0.9 nM | [P]T (total concentration of binding sites) (streptavidin [9]): 0.26 nM | Kd [10]: 26 µM | sensitivity relative to rcSso7d.SA monolayer (streptavidin [11]): > 10 fold | [P]T (total concentration of binding sites) (streptavidin [12]): 0.27 nM | Limit of Detection [13]: 10.5 nM | Kd (streptavidin [14]): 30 µM | LOD relative to rcSso7d.SA monolayer [15]: 2 orders of magnitude lower | Kd [16]: 11 µM | reduction in LOD relative to rcSso7d.SA monolayer [17]: 10 fold | sensitivity relative to rcSso7d.SA monolayer (streptavidin [18]): ~2 fold | Kd (streptavidin [19]): 60 µM | Limit of Detection (streptavidin [20]): 1700 nM | LOD relative to rcSso7d.SA monolayer (streptavidin [21]): 2 fold | Kd [22]: 3.7 µM | [P]T (total concentration of binding sites) [23]: 9.4 nM | Kd [24]: 12.2 µM | [P]T (total concentration of binding sites) [25]: 17 nM

B2: 3xSP25k thin film (3x rcSso7d.SA-PNIPAM conjugate, PNIPAM Mn 24.9 kDa) (designed binder)
chain: B1 chain
modifications: maleimide end-functionalized PNIPAM (Mn 24.9 kDa) on the N-terminal Cys; film lightly crosslinked with glutaraldehyde
notes: Three rcSso7d.SA repeats joined by (G4S)2 linkers in one chain; also called conjugate of the trimer
Calculated Density (density of binding sites within a cross-sectional area of the film) [26]: 59 | Calculated Ratio (film thickness x [P]T relative to the 1xSP25k thin film) [26]: 1.24 | [P]T (total concentration of accessible binding sites) [27]: 3.9 µM | fluorescent signal relative to rcSso7d.SA monolayer [28]: > 10 fold | limit of detection (LOD) [29]: 110 nM
